B1: Hairpin Ribozyme (parent)
chain: GUCCUCUUUCACGUGCGCGUGAAAGAGAGAAGUGAACCAGAGAAACACACGUUGUGGUAUAUUACCUGGUA

Variants of: B1
Experiment: self-cleavage, relative activity (ratio to wild type); higher = more cleavage; co-transcriptional

Variant	self-cleavage
A44G C50U	0.134
A44G C50A	0.198
A47C C65G	0.203
A44C A47G	0.125
A47G A49U	0.0814
A44C G68A	0.103
C46U G56A	0.138
C46U G56C	0.204
A47G A64C	0.0744
A47G A64G	0.0949
A45U C50G	0.146
C46A G56U	0.077
A45G U63G	0.226
A45G U63C	0.0324
A43U U55G	0.232
A45C G57C	0.105
C46U U62G	0.237
C46U U62C	0.213
C46G U53C	0.0868
C46G U53A	0.0595
A44U U63C	0.135

Variant	self-cleavage
A44U U63A	0.141
A47C U58C	0.318
C46G U63A	0.279
A47G G51C	0.221
A47G G51U	0.15
C46U U53A	0.215
C46U U53G	0.216
A45U U70G	0.24
A45U U70A	0.0397
A45U U70C	0.056
A47G U52C	0.124
A45U A61G	0.184
A44C U63G	0.182
A44G G54C	0.119
A47G G69C	0.112
A47G G69U	0.118
A44G U53A	0.214
A44G U53G	0.112
A45C C50A	0.209
A45C C50G	0.211
A47C G69A	0.151

Variant	self-cleavage
A47C G69U	0.0997
A44U A47C	0.0912
A43U A49C	0.173
A47U A64U	0.123
A47U A64G	0.0969
C46G U52A	0.189
C46G U52G	0.232
C46G U52C	0.144
A45C C48A	0.0612
A45C C48G	0.188
A45U C48A	0.14
A45U C48U	0.135
A44U U52G	0.121
A47C G51C	0.377
A47C A49G	0.308
A47C A49C	0.204
A43G U52G	0
A43G U52A	0.202
C46U A61C	0.0903
C46U A61G	0.129
A44C C50G	0

Variant	self-cleavage
A43U G56C	0.0883
A43U G56U	0.133
A47G G57A	0.151
A45U A64C	0.18
A45C A49U	0.202
A47C C48A	0.164
A44G A49C	0.0332
A44G A49G	0.126
A43G G56U	0.0228
A43G G56C	0.0421
A44G U58C	0.0672
A47U A71U	0.234
A47U A71G	0.191
A45G A64C	0.216
A45G A64G	0.1
A43G C66U	0.139
A43G C66G	0.0518
A43G C66A	0.171
A47G U58C	0.17
A44C C65U	0.142

Source: the RNAGym collection of RNA variant scans (doi:10.7554/elife.80360)
